{
  "source": "the DeepSol protein solubility set",
  "data": [
    {"experiment": "soluble on expression in E. coli; label from the status in PepcDB or PDB records", "values": [
      {"sequence": "MGSDKIHHHHHHMIYIGLTGWGDHDELYTMGTKPSEKLYTYGSHFPTVEVDSSFYAIQPKRNMEKWASDTPDCFRFVVKAYQGLTGHQRGEIPFSSKEDMFAAFVESLQPLLESNKLAMVLFQFPPWFDCTKEHVRYLRYCKQQMGKIPVALEFRHQSWFRPSVRERTLSFMREEGWIHSICDEPQGGEGSVPTVLVPSNEENVLVRFHGRNVEGWRRPQEGNWREVRYLYRYSKEELAEWAEHLKQLAAQVKDVYVLFNNNSGGDAAANAKQMLELLEIEYHGLTPKQLNLFE", "soluble on expression in E. coli": "not soluble"},
      {"sequence": "MGSDKIHHHHHHMKAFQYAARAQRIVFGAGTIRQVGEEIDALGASSVLVLSTPEQRRLAEQVSDLLGARAIGIFDRAVMHVPVETARAACAMAFELGADSVVAIGGGSTTGLAKAIALEMSVPVLAIPTTYAGSEMTTIYGLTDAGLKRTGTDVRVLPRTVIYDPELTYLLPAAISVTSGINALAHAAEGLYAHDRNPISDLMAREGIQAMAAALPALVSERDTARLREARAQALYGAWLCGAVLGSVGVALHHKLCHTLGGSFNLPHAETHTIILPHALAYNAKAAPDAMASIAQALGADNAAQGAFDLARTTGAPLGLRQIGMREDELDKACEIALQNQYPNPRPLEAGAIRELLQNAWEGRRPV", "soluble on expression in E. coli": "not soluble"},
      {"sequence": "MGSDKIHHHHHHMKALVVGACTRPVVNSLKKLNFEVYSVSHYNPVDLNADHKKYTINDKFHGHLADKYSEKELLNLSKEYVDLVDYIFVCSGIFESKTSKTPNWDVVGNSPKRIKNISDKYKTVKKLENLGFNVPVTYLVNNKYQFEKCLSELKSVVVKPISGSGGIGVTNIDFQNTDNLDINYPVLVQERIKSESYSASFIGSNFLCFNKQLINNNIYVGNISPYVLNLKNETIQEFEEVIASLDLLGMNGIDFMLKDGIPYIIEVNPRILGTYETIELSSRYNLSKAILENKPVKPKDCFFKKIVFSDKGSSYSIDKNPFLRDIPQKGTYIEEGEPVVTIIGRNMADVREMECGILRGV", "soluble on expression in E. coli": "not soluble"},
      {"sequence": "MGSDKIHHHHHHMKDVSIVLSGEAGQGIQTVENVLTRVLKDSGFHVFATKEYMSRVRGGNNTTEIRVSSRRVRSFVDRIDVLIPLGKGATERLKNRITEKTLVIGEEEFIKESPGEKIVIPFLNIAKQIGKSIYANSVAIGFLSGLLGADESALKDQITRQFSSKGEDIVNDNIRAALEGYKKGQELSQKIEFDVEKDPSIKNEVLLNGAEAVGLGAIAGGCNFVSSYPMSPSTSVLVFLAQHKNDFGIVVEQAEDEIAAMNMIIGAWYAGARGLVTTSGGGFALMEEALSLAGMIESPAVIHLAQRPGPATGLPTRTEQGDLNLALYAGHGDFPRVIYAPGNVEEAFYLTQKAFNVADKYQVPVFVLTDQYLVDSYYNLPGFDLNELKVEKHFIKTTRDYIRYAITEDGISPRGIPGYGEGLVRVDSDEHDEFGHITEDFNTRVRMVNKRLRKGETLKKEIVKPKLIGDENYRVLLVAWGSTLEPIKEAIEGLDGVALLHFSQVWPIDESVATYFEKAEKVVAVEGNATGQFANLIRQVTGFHIKDRILKYNGLQFSVEELKEKIAEVL", "soluble on expression in E. coli": "not soluble"},
      {"sequence": "MGSDKIHHHHHHMKEAKKIDISKLKTGFLGKFPSHQLSRILSSEPDRLTEPEFLAKALKENKYVPYYYINVRENPTSIKIYRYVTKISNRDNDIDEVKNKFDSFLYGKSIVILDEVDFLQDYDVLYHITRHTKANLILLTQKVYWYMDTNDESVKSSLQPDHIVFYEYSSDEIREILKMRADEGLNKYDPDSLGLLSAMLVRNYRSDARIGIKALEIIGRMNEWDDDSVRTALKQAYVEVEGETLKNLGDRDLLILAALIKNQDTNRAYSEVSASSNLLLRGVSKSTFF", "soluble on expression in E. coli": "not soluble"},
      {"sequence": "MGSDKIHHHHHHMKEIALLAIARYGDLIQTTPLVRALRRAHPGARITAIVEDRFCGILPLLPGIDRTIVLNKQDIAWDIATGDSPLVPYLKMDEFVRKLEEGSYDLLVNITCSRLSAFFASCVTSRRRTGISADEAGERNIVTLWGQYIFSWFNDNIRKYNAINLVDIFTRLGEVPPDGRRVELVATEKGERFADDFLDRHGLRGQRLVGLQLGASEATRIWPAEHFARISDRLQRELGVRTILFGAPVEKHLAGQAMAAMEMPAVDAVGETGIEELYSLVGRCAALVSNDTGTMHFAAAAGVPAVMLCIGPAFFRCTGPYGEGHLALQPDLPCSPCPYSLVCADPVCRDTISPEAVFSACRMILAGADGLGNADFSGVRVYRSSFAPDGYLTWDGLFNVDAWEEEQVKRRESAWKGCFDGSTKGCGAPGDETLRAFWELTGRGIEATEAIIRAARKKPLPVDEIRRLGEKESAIEAEVKLMGYRHEPLAPVTEFLTLMRENITGEELGRIARETRSLYETGRCLAALL", "soluble on expression in E. coli": "not soluble"},
      {"sequence": "MGSDKIHHHHHHMKEIDELTIKEYGVDSRILMERAGISVVLAMEEELGNLSDYRFLVLCGGGNNGGDGFVVARNLLGVVKDVLVVFLGKKKTPDCEYNYGLYKKFGGKVVEQFEPSILNEFDVVVDAIFGTGLRGEITGEYAEIINLVNKSGKVVVSVDVPSGIDSNTGKVLRTAVKADLTVTFGVPKIGHILFPGRDLTGKLKVANIGHPVHLINSINRYVITREMVRSLLPERPRDSHKGTYGKVLIIAGSRLYSGAPVLSGMGSLKVGTGLVKLAVPFPQNLIATSRFPELISVPIDTEKGFFSLQNLQECLELSKDVDVVAIGPGLGNNEHVREFVNEFLKTLEKPAVIDADAINVLDTSVLKERKSPAVLTPHPGEMARLVKKTVGDVKYNYELAEEFAKENDCVLVLKSATTIVTDGEKTLFNITGNTGLSKGGSGDVLTGMIAGFIAQGLSPLEASTVSVYLHGFAAELFEQDERGLTASELLRLIPEAIRRLKE", "soluble on expression in E. coli": "soluble"},
      {"sequence": "MGSDKIHHHHHHMKEIINLDEMIMLLKTIAESSRLRLLALLYHEDLTVSDFTLVLGQSQSHVLQHLHLLYEAQLVERYQKGRSIYFKLYYGRLGKDIVMAVVSALLEHNRVIAHDLARLKDIKKQYRKQEKKYFLQNVVQWDTLRLFSIADLGVENALREIVGDKPFETMLDISRDTGSVLKLFSGLYTYAVEVVLDSDILHLSVENTTFDLVILHWVLYFLESPEVALHEIAGVLRPHGRLLIVDFVRHEVESSHSYLSHMPFGFSDLQIEQWLKNVGLILEKIICFPPLQNENNERLMVKIWLARDPRLLVDDIKDKKVEFA", "soluble on expression in E. coli": "not soluble"},
      {"sequence": "MGSDKIHHHHHHMKEINLASVLVAKRREKGITQDELAAYIGVSKASVSKWETGQSYPDITFLPLLAAYFNISIDELMSYSPQMERSDIAKLYTRLAADFASRPFEDVIAECAALIKKYYSCFPLLVQLVKLYTNHFMLAGTQERQEALLNETVTLCERIQAESGDVQLAKEAVSYQALCSLALQRPQQVLDLLGEGIRPMLPEGMLIAQAYQVMGNIGKAKETLQTELYQYVMVAFQGLLNVLQMATDHFEKAEEAFLRASDLAQIFNMKQLNPNNVILLYALGARMYCANNSHAKAIELLGNYVDTCVGGFFPFELHGDAFFDLIDPWLKDCGAAAPRSEQVIKESMLRDVLMNPAFASLQDDPGYRRLVQKMERFIGR", "soluble on expression in E. coli": "not soluble"},
      {"sequence": "MGSDKIHHHHHHMKEKTVAIFNGYYIPHLGGVERYTYNIAKKLTEKGYRVIIITTQHDENLTNEEIQEGIKIYRLPIKNLWKNRYPFLKKNRIYHSLIEKIEAESIDYYVANTRFHLPAMLGVKMAKAKGKEAIVIEHGSSYLTLNNPVLDFMLRKIEQLLIGRVKKDTSLFYGVSNEASEWLKTFDIKAKGVLPNAVAVDEYFNQKIEKDEKKLTISYAGRLIPQMKGVEILLSTFSKLSKERKNLELIIAGDGPLLNEVKRKYSQKNIKFLGYVPYEKVLEIDAKSDVFVLMSRSEGFATAMLEAAMLENVIITTPTVGGARDIMPDETYGYIIENNETKLFETLTKVLDNKEHMRLMQKKISKNVLENFTWEQSAKQFIKVFNELDEK", "soluble on expression in E. coli": "not soluble"},
      {"sequence": "MGSDKIHHHHHHMKEYIMSFFNAPVTNKIPTCICSVAGLHTYISTNPQLEELTRKVRAGLGDKQVFRKNKQTLLPYVTPAGIFSYCKEQCMQVPSGLFVIDIDELASTEEAAMWRDRLFADEVLHPVLSFVSPGNQGVKLFIPYRINPFLSVEESFDNALHTAWEYLEWKYELKVDRANADLSRACFLSHDGEAKINNHKY", "soluble on expression in E. coli": "not soluble"},
      {"sequence": "MGSDKIHHHHHHMKFSDIISKLEVTNYSLTQNPNNDPEITGMAAIDEATSGTLSYIEGAKFASFIAKTNASALILPQNEAMQAQAQERGIVWMATPEPRLLFAKAIALFYQPYTPTPEIHPTAVIHPTAKIGNDVYIGPHVVIQPGVEIGNGVIIHPNVVIYPGVKIGDRTILHANCTIEERSQIGADCVIHSGAVIGGEGFGFVPTRTGWYKMEQSGYVVLEDRVDIGCNTTIDRPSVGETRVGYDTKIDNLVQIAHGCQIGAGCAIAAQTGMAGGVKLGNRVILAGQVGIANQAKMGDGSTASAQTGILHDVKPGEVVSGTPAIPHKMYLKIAALYSRLPDMYQAFRQSQRQLEEEGKR", "soluble on expression in E. coli": "not soluble"}
    ]}
  ]
}
